Source: patent US20110118447A1

Assays:
[1] = target: binding partner of C5A (XPA23); experiment: Biacore K-off
[2] = target: binding partner of C5A (XPA23); experiment: Biacore

Row | fold difference in affinity vs original [1] [fold] | fold affinity vs original [2] [fold] | fold difference in affinity vs original [2] [fold] | Binder
1 | 0.1 | 0.1 | – | C5A (XPA23) VH S30R (antibody, V domains shown) VH: EVQLLESGGGLVQPGGSLRLSCAASGFTFRKYFMFWVRQAPGKGLEWVSVISPSGGMTRYADSVKGRFTISRDNSKNTLYLQMNSLRAEDTAVYYCARVGYGGNSDYWGQGTLVTVSS VL: DIQMTQSPSSVSASVGDRLTIICRASQDINRWLAWYQQTPGNAPKLLIHSATSLQSGVPSRFSGSGSGTDFTLTINSLQPEDFATYYCQQADSFPLTFGGGTKVEIK
2 | 0.04 | 0.04 | – | C5A (XPA23) VH Y32N (antibody, V domains shown) VH: EVQLLESGGGLVQPGGSLRLSCAASGFTFSKNFMFWVRQAPGKGLEWVSVISPSGGMTRYADSVKGRFTISRDNSKNTLYLQMNSLRAEDTAVYYCARVGYGGNSDYWGQGTLVTVSS VL: DIQMTQSPSSVSASVGDRLTIICRASQDINRWLAWYQQTPGNAPKLLIHSATSLQSGVPSRFSGSGSGTDFTLTINSLQPEDFATYYCQQADSFPLTFGGGTKVEIK
3 | 0.68 | 0.68 | – | C5A (XPA23) VH Y32D (antibody, V domains shown) VH: EVQLLESGGGLVQPGGSLRLSCAASGFTFSKDFMFWVRQAPGKGLEWVSVISPSGGMTRYADSVKGRFTISRDNSKNTLYLQMNSLRAEDTAVYYCARVGYGGNSDYWGQGTLVTVSS VL: DIQMTQSPSSVSASVGDRLTIICRASQDINRWLAWYQQTPGNAPKLLIHSATSLQSGVPSRFSGSGSGTDFTLTINSLQPEDFATYYCQQADSFPLTFGGGTKVEIK
4 | 0.06 | – | 0.06 | C5A (XPA23) VH S30T (antibody, V domains shown) VH: EVQLLESGGGLVQPGGSLRLSCAASGFTFTKYFMFWVRQAPGKGLEWVSVISPSGGMTRYADSVKGRFTISRDNSKNTLYLQMNSLRAEDTAVYYCARVGYGGNSDYWGQGTLVTVSS VL: DIQMTQSPSSVSASVGDRLTIICRASQDINRWLAWYQQTPGNAPKLLIHSATSLQSGVPSRFSGSGSGTDFTLTINSLQPEDFATYYCQQADSFPLTFGGGTKVEIK
5 | 1.33 | 1.33 | – | C5A (XPA23) VH Y32S (antibody, V domains shown) VH: EVQLLESGGGLVQPGGSLRLSCAASGFTFSKSFMFWVRQAPGKGLEWVSVISPSGGMTRYADSVKGRFTISRDNSKNTLYLQMNSLRAEDTAVYYCARVGYGGNSDYWGQGTLVTVSS VL: DIQMTQSPSSVSASVGDRLTIICRASQDINRWLAWYQQTPGNAPKLLIHSATSLQSGVPSRFSGSGSGTDFTLTINSLQPEDFATYYCQQADSFPLTFGGGTKVEIK
6 | 0.8 | – | 0.8 | C5A (XPA23) VH Y32T (antibody, V domains shown) VH: EVQLLESGGGLVQPGGSLRLSCAASGFTFSKTFMFWVRQAPGKGLEWVSVISPSGGMTRYADSVKGRFTISRDNSKNTLYLQMNSLRAEDTAVYYCARVGYGGNSDYWGQGTLVTVSS VL: DIQMTQSPSSVSASVGDRLTIICRASQDINRWLAWYQQTPGNAPKLLIHSATSLQSGVPSRFSGSGSGTDFTLTINSLQPEDFATYYCQQADSFPLTFGGGTKVEIK
7 | 0.12 | 0.12 | – | C5A (XPA23) VH Y32E (antibody, V domains shown) VH: EVQLLESGGGLVQPGGSLRLSCAASGFTFSKEFMFWVRQAPGKGLEWVSVISPSGGMTRYADSVKGRFTISRDNSKNTLYLQMNSLRAEDTAVYYCARVGYGGNSDYWGQGTLVTVSS VL: DIQMTQSPSSVSASVGDRLTIICRASQDINRWLAWYQQTPGNAPKLLIHSATSLQSGVPSRFSGSGSGTDFTLTINSLQPEDFATYYCQQADSFPLTFGGGTKVEIK
8 | 0.62 | 0.62 | – | C5A (XPA23) VH Y32H (antibody, V domains shown) VH: EVQLLESGGGLVQPGGSLRLSCAASGFTFSKHFMFWVRQAPGKGLEWVSVISPSGGMTRYADSVKGRFTISRDNSKNTLYLQMNSLRAEDTAVYYCARVGYGGNSDYWGQGTLVTVSS VL: DIQMTQSPSSVSASVGDRLTIICRASQDINRWLAWYQQTPGNAPKLLIHSATSLQSGVPSRFSGSGSGTDFTLTINSLQPEDFATYYCQQADSFPLTFGGGTKVEIK
9 | 0.15 | 0.15 | – | C5A (XPA23) VH S30N (antibody, V domains shown) VH: EVQLLESGGGLVQPGGSLRLSCAASGFTFNKYFMFWVRQAPGKGLEWVSVISPSGGMTRYADSVKGRFTISRDNSKNTLYLQMNSLRAEDTAVYYCARVGYGGNSDYWGQGTLVTVSS VL: DIQMTQSPSSVSASVGDRLTIICRASQDINRWLAWYQQTPGNAPKLLIHSATSLQSGVPSRFSGSGSGTDFTLTINSLQPEDFATYYCQQADSFPLTFGGGTKVEIK

The next lines start with the binder.

Row | Binder | fold difference in affinity vs original [1] [fold] | fold affinity vs original [2] [fold] | fold difference in affinity vs original [2] [fold]
10 | C5A (XPA23) VH F33Q (antibody, V domains shown) VH: EVQLLESGGGLVQPGGSLRLSCAASGFTFSKYQMFWVRQAPGKGLEWVSVISPSGGMTRYADSVKGRFTISRDNSKNTLYLQMNSLRAEDTAVYYCARVGYGGNSDYWGQGTLVTVSS VL: DIQMTQSPSSVSASVGDRLTIICRASQDINRWLAWYQQTPGNAPKLLIHSATSLQSGVPSRFSGSGSGTDFTLTINSLQPEDFATYYCQQADSFPLTFGGGTKVEIK | 0.78 | 0.78 | –
11 | C5A (XPA23) VH F33S (antibody, V domains shown) VH: EVQLLESGGGLVQPGGSLRLSCAASGFTFSKYSMFWVRQAPGKGLEWVSVISPSGGMTRYADSVKGRFTISRDNSKNTLYLQMNSLRAEDTAVYYCARVGYGGNSDYWGQGTLVTVSS VL: DIQMTQSPSSVSASVGDRLTIICRASQDINRWLAWYQQTPGNAPKLLIHSATSLQSGVPSRFSGSGSGTDFTLTINSLQPEDFATYYCQQADSFPLTFGGGTKVEIK | 0.73 | 0.73 | –
12 | C5A (XPA23) VH F33E (antibody, V domains shown) VH: EVQLLESGGGLVQPGGSLRLSCAASGFTFSKYEMFWVRQAPGKGLEWVSVISPSGGMTRYADSVKGRFTISRDNSKNTLYLQMNSLRAEDTAVYYCARVGYGGNSDYWGQGTLVTVSS VL: DIQMTQSPSSVSASVGDRLTIICRASQDINRWLAWYQQTPGNAPKLLIHSATSLQSGVPSRFSGSGSGTDFTLTINSLQPEDFATYYCQQADSFPLTFGGGTKVEIK | 0.86 | 0.86 | –
13 | C5A (XPA23) VH F33D (antibody, V domains shown) VH: EVQLLESGGGLVQPGGSLRLSCAASGFTFSKYDMFWVRQAPGKGLEWVSVISPSGGMTRYADSVKGRFTISRDNSKNTLYLQMNSLRAEDTAVYYCARVGYGGNSDYWGQGTLVTVSS VL: DIQMTQSPSSVSASVGDRLTIICRASQDINRWLAWYQQTPGNAPKLLIHSATSLQSGVPSRFSGSGSGTDFTLTINSLQPEDFATYYCQQADSFPLTFGGGTKVEIK | 0.92 | 0.92 | –
14 | C5A (XPA23) VH F33T (antibody, V domains shown) VH: EVQLLESGGGLVQPGGSLRLSCAASGFTFSKYTMFWVRQAPGKGLEWVSVISPSGGMTRYADSVKGRFTISRDNSKNTLYLQMNSLRAEDTAVYYCARVGYGGNSDYWGQGTLVTVSS VL: DIQMTQSPSSVSASVGDRLTIICRASQDINRWLAWYQQTPGNAPKLLIHSATSLQSGVPSRFSGSGSGTDFTLTINSLQPEDFATYYCQQADSFPLTFGGGTKVEIK | 0.78 | – | 0.78
15 | C5A (XPA23) VH F33N (antibody, V domains shown) VH: EVQLLESGGGLVQPGGSLRLSCAASGFTFSKYNMFWVRQAPGKGLEWVSVISPSGGMTRYADSVKGRFTISRDNSKNTLYLQMNSLRAEDTAVYYCARVGYGGNSDYWGQGTLVTVSS VL: DIQMTQSPSSVSASVGDRLTIICRASQDINRWLAWYQQTPGNAPKLLIHSATSLQSGVPSRFSGSGSGTDFTLTINSLQPEDFATYYCQQADSFPLTFGGGTKVEIK | 0.97 | 0.97 | –
16 | C5A (XPA23) VH F33K (antibody, V domains shown) VH: EVQLLESGGGLVQPGGSLRLSCAASGFTFSKYKMFWVRQAPGKGLEWVSVISPSGGMTRYADSVKGRFTISRDNSKNTLYLQMNSLRAEDTAVYYCARVGYGGNSDYWGQGTLVTVSS VL: DIQMTQSPSSVSASVGDRLTIICRASQDINRWLAWYQQTPGNAPKLLIHSATSLQSGVPSRFSGSGSGTDFTLTINSLQPEDFATYYCQQADSFPLTFGGGTKVEIK | 0.85 | 0.85 | –
17 | C5A (XPA23) VH K31R (antibody, V domains shown) VH: EVQLLESGGGLVQPGGSLRLSCAASGFTFSRYFMFWVRQAPGKGLEWVSVISPSGGMTRYADSVKGRFTISRDNSKNTLYLQMNSLRAEDTAVYYCARVGYGGNSDYWGQGTLVTVSS VL: DIQMTQSPSSVSASVGDRLTIICRASQDINRWLAWYQQTPGNAPKLLIHSATSLQSGVPSRFSGSGSGTDFTLTINSLQPEDFATYYCQQADSFPLTFGGGTKVEIK | 0.9 | 0.9 | –
18 | C5A (XPA23) VH K31D (antibody, V domains shown) VH: EVQLLESGGGLVQPGGSLRLSCAASGFTFSDYFMFWVRQAPGKGLEWVSVISPSGGMTRYADSVKGRFTISRDNSKNTLYLQMNSLRAEDTAVYYCARVGYGGNSDYWGQGTLVTVSS VL: DIQMTQSPSSVSASVGDRLTIICRASQDINRWLAWYQQTPGNAPKLLIHSATSLQSGVPSRFSGSGSGTDFTLTINSLQPEDFATYYCQQADSFPLTFGGGTKVEIK | 0.04 | 0.04 | –
19 | C5A (XPA23) VH K31H (antibody, V domains shown) VH: EVQLLESGGGLVQPGGSLRLSCAASGFTFSHYFMFWVRQAPGKGLEWVSVISPSGGMTRYADSVKGRFTISRDNSKNTLYLQMNSLRAEDTAVYYCARVGYGGNSDYWGQGTLVTVSS VL: DIQMTQSPSSVSASVGDRLTIICRASQDINRWLAWYQQTPGNAPKLLIHSATSLQSGVPSRFSGSGSGTDFTLTINSLQPEDFATYYCQQADSFPLTFGGGTKVEIK | 1.11 | 1.11 | –
20 | C5A (XPA23) VH K31Y (antibody, V domains shown) VH: EVQLLESGGGLVQPGGSLRLSCAASGFTFSYYFMFWVRQAPGKGLEWVSVISPSGGMTRYADSVKGRFTISRDNSKNTLYLQMNSLRAEDTAVYYCARVGYGGNSDYWGQGTLVTVSS VL: DIQMTQSPSSVSASVGDRLTIICRASQDINRWLAWYQQTPGNAPKLLIHSATSLQSGVPSRFSGSGSGTDFTLTINSLQPEDFATYYCQQADSFPLTFGGGTKVEIK | 0.04 | 0.04 | –
